test system: Escherichia coli TOP10; test: shrunken log2 fold change of peptide-encoding DNA abundance (4.5 h post-induction vs induction); higher = less antimicrobial activity (less host growth inhibition); conditions: time post-induction: 4.5 h; library: site-saturation at positions 5, 18, 19, 20
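Also: peptides expressed intracellularly from a pBAD plasmid library in pooled LB shake-flask culture, induced with 0.3% L-arabinose, DNA abundance read by NGS, three biological replicates, DESeq2 with apeglm shrinkage.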

Row | Sequence | shrunken log2 fold change
1 | RRIRTRPPRLPRPRPRPYWGPRP | -0.0337
2 | RRIRTRPPRLPRPRPRPYWMPRP | -0.707
3 | RRIRTRPPRLPRPRPRPYWWPRP | -0.554
4 | RRIRVRPPRLPRPRPRPAAHPRP | 0.0619
5 | RRIRVRPPRLPRPRPRPACYPRP | -0.0764
6 | RRIRVRPPRLPRPRPRPADAPRP | -0.183
7 | RRIRVRPPRLPRPRPRPAEDPRP | 0.0101
8 | RRIRVRPPRLPRPRPRPAFCPRP | 0.185
9 | RRIRVRPPRLPRPRPRPAGTPRP | 0.146
10 | RRIRVRPPRLPRPRPRPAHIPRP | -0.0203
11 | RRIRVRPPRLPRPRPRPAHKPRP | -0.0968
12 | RRIRVRPPRLPRPRPRPAIEPRP | 0.0433
13 | RRIRVRPPRLPRPRPRPALIPRP | 0.342
14 | RRIRVRPPRLPRPRPRPALKPRP | 0.253
15 | RRIRVRPPRLPRPRPRPANGPRP | 0.136
16 | RRIRVRPPRLPRPRPRPANKPRP | -0.36
17 | RRIRVRPPRLPRPRPRPANNPRP | -0.272
18 | RRIRVRPPRLPRPRPRPANYPRP | -0.241
19 | RRIRVRPPRLPRPRPRPAPDPRP | 0.377
20 | RRIRVRPPRLPRPRPRPAPRPRP | 0.634
21 | RRIRVRPPRLPRPRPRPAQAPRP | 0.74
22 | RRIRVRPPRLPRPRPRPATCPRP | -0.164
23 | RRIRVRPPRLPRPRPRPATMPRP | -0.259
24 | RRIRVRPPRLPRPRPRPAVKPRP | 0.318
25 | RRIRVRPPRLPRPRPRPAWAPRP | 0.255

Row | Sequence | shrunken log2 fold change
26 | RRIRVRPPRLPRPRPRPAWFPRP | 0.0841
27 | RRIRVRPPRLPRPRPRPAYVPRP | -0.17
28 | RRIRVRPPRLPRPRPRPCADPRP | -0.101
29 | RRIRVRPPRLPRPRPRPCAEPRP | -0.0931
30 | RRIRVRPPRLPRPRPRPCCKPRP | 0.905
31 | RRIRVRPPRLPRPRPRPCCLPRP | -0.241
32 | RRIRVRPPRLPRPRPRPCCNPRP | -0.426
33 | RRIRVRPPRLPRPRPRPCCVPRP | -0.146
34 | RRIRVRPPRLPRPRPRPCDGPRP | 0.0303
35 | RRIRVRPPRLPRPRPRPCDHPRP | -0.338
36 | RRIRVRPPRLPRPRPRPCFLPRP | -0.493
37 | RRIRVRPPRLPRPRPRPCGMPRP | -0.00417
38 | RRIRVRPPRLPRPRPRPCGSPRP | -0.225
39 | RRIRVRPPRLPRPRPRPCHAPRP | -0.311
40 | RRIRVRPPRLPRPRPRPCHPPRP | -0.0124
41 | RRIRVRPPRLPRPRPRPCHRPRP | -0.0177
42 | RRIRVRPPRLPRPRPRPCIFPRP | -0.0604
43 | RRIRVRPPRLPRPRPRPCILPRP | -0.208
44 | RRIRVRPPRLPRPRPRPCITPRP | -0.233
45 | RRIRVRPPRLPRPRPRPCKPPRP | -0.692
46 | RRIRVRPPRLPRPRPRPCLGPRP | -0.069
47 | RRIRVRPPRLPRPRPRPCNTPRP | -0.586
48 | RRIRVRPPRLPRPRPRPCSCPRP | 0.141
49 | RRIRVRPPRLPRPRPRPCSGPRP | -0.0235
50 | RRIRVRPPRLPRPRPRPCVFPRP | -0.00495

Row | Sequence | shrunken log2 fold change
51 | RRIRVRPPRLPRPRPRPCVIPRP | -0.0142
52 | RRIRVRPPRLPRPRPRPCVPPRP | 0.124
53 | RRIRVRPPRLPRPRPRPDCRPRP | -0.0921
54 | RRIRVRPPRLPRPRPRPDDCPRP | -0.197
55 | RRIRVRPPRLPRPRPRPDDKPRP | -0.446
56 | RRIRVRPPRLPRPRPRPDFFPRP | -0.0229
57 | RRIRVRPPRLPRPRPRPDFLPRP | -0.189
58 | RRIRVRPPRLPRPRPRPDGGPRP | -0.0572
59 | RRIRVRPPRLPRPRPRPDGRPRP | 0.149
60 | RRIRVRPPRLPRPRPRPDHAPRP | 0.27
61 | RRIRVRPPRLPRPRPRPDIAPRP | -0.211
62 | RRIRVRPPRLPRPRPRPDIGPRP | -0.173
63 | RRIRVRPPRLPRPRPRPDISPRP | -0.0643
64 | RRIRVRPPRLPRPRPRPDIYPRP | -0.131
65 | RRIRVRPPRLPRPRPRPDKCPRP | -0.0495
66 | RRIRVRPPRLPRPRPRPDKFPRP | 0.0677
67 | RRIRVRPPRLPRPRPRPDKSPRP | -0.0971
68 | RRIRVRPPRLPRPRPRPDLGPRP | 0.155
69 | RRIRVRPPRLPRPRPRPDLWPRP | 0.115
70 | RRIRVRPPRLPRPRPRPDMSPRP | -0.0318
71 | RRIRVRPPRLPRPRPRPDNHPRP | 0.0415
72 | RRIRVRPPRLPRPRPRPDNMPRP | -0.868
73 | RRIRVRPPRLPRPRPRPDPDPRP | -0.0209
74 | RRIRVRPPRLPRPRPRPDPHPRP | -0.16
75 | RRIRVRPPRLPRPRPRPDPPPRP | 1.27

Row | Sequence | shrunken log2 fold change
76 | RRIRVRPPRLPRPRPRPDREPRP | 0.0132
77 | RRIRVRPPRLPRPRPRPDTNPRP | -0.479
78 | RRIRVRPPRLPRPRPRPDWEPRP | 0.00682
79 | RRIRVRPPRLPRPRPRPDWPPRP | 0.334
80 | RRIRVRPPRLPRPRPRPDWYPRP | -0.0357
81 | RRIRVRPPRLPRPRPRPDYNPRP | -0.554
82 | RRIRVRPPRLPRPRPRPDYQPRP | 0.0174
83 | RRIRVRPPRLPRPRPRPECFPRP | 0.195
84 | RRIRVRPPRLPRPRPRPECIPRP | -0.0283
85 | RRIRVRPPRLPRPRPRPECWPRP | 0.573
86 | RRIRVRPPRLPRPRPRPEDNPRP | -0.184
87 | RRIRVRPPRLPRPRPRPEFFPRP | 0.183
88 | RRIRVRPPRLPRPRPRPEFPPRP | -0.081
89 | RRIRVRPPRLPRPRPRPEFYPRP | -0.251
90 | RRIRVRPPRLPRPRPRPEGMPRP | 0.326
91 | RRIRVRPPRLPRPRPRPEGSPRP | 0.464
92 | RRIRVRPPRLPRPRPRPEIIPRP | -0.0128
93 | RRIRVRPPRLPRPRPRPEISPRP | -0.122
94 | RRIRVRPPRLPRPRPRPEKMPRP | -0.3
95 | RRIRVRPPRLPRPRPRPENEPRP | -0.0631
96 | RRIRVRPPRLPRPRPRPENFPRP | 0.0199
97 | RRIRVRPPRLPRPRPRPENVPRP | -0.0136
98 | RRIRVRPPRLPRPRPRPEPKPRP | 0.13
99 | RRIRVRPPRLPRPRPRPESLPRP | -0.175
100 | RRIRVRPPRLPRPRPRPETNPRP | 0.0778

Row | Sequence | shrunken log2 fold change
101 | RRIRVRPPRLPRPRPRPFCCPRP | -0.0229
102 | RRIRVRPPRLPRPRPRPFCFPRP | 0.0496
103 | RRIRVRPPRLPRPRPRPFDRPRP | 0.121
104 | RRIRVRPPRLPRPRPRPFDWPRP | -0.103
105 | RRIRVRPPRLPRPRPRPFEMPRP | -0.572
106 | RRIRVRPPRLPRPRPRPFERPRP | 0.0254
107 | RRIRVRPPRLPRPRPRPFETPRP | -0.0538
108 | RRIRVRPPRLPRPRPRPFFDPRP | 1.19
109 | RRIRVRPPRLPRPRPRPFGFPRP | -0.294
110 | RRIRVRPPRLPRPRPRPFLIPRP | -0.777
111 | RRIRVRPPRLPRPRPRPFLWPRP | -0.698
112 | RRIRVRPPRLPRPRPRPFMEPRP | -0.265
113 | RRIRVRPPRLPRPRPRPFNAPRP | -0.563
114 | RRIRVRPPRLPRPRPRPFNQPRP | -0.19
115 | RRIRVRPPRLPRPRPRPFQPPRP | -0.152
116 | RRIRVRPPRLPRPRPRPFQTPRP | -0.214
117 | RRIRVRPPRLPRPRPRPFSAPRP | -0.132
118 | RRIRVRPPRLPRPRPRPFSNPRP | -0.28
119 | RRIRVRPPRLPRPRPRPFWDPRP | -0.0687
120 | RRIRVRPPRLPRPRPRPFWHPRP | -0.205
121 | RRIRVRPPRLPRPRPRPGAAPRP | 0.653
122 | RRIRVRPPRLPRPRPRPGCGPRP | 0.679
123 | RRIRVRPPRLPRPRPRPGEPPRP | 0.043
124 | RRIRVRPPRLPRPRPRPGFHPRP | -0.184
125 | RRIRVRPPRLPRPRPRPGFPPRP | 0.141

Row | Sequence | shrunken log2 fold change
126 | RRIRVRPPRLPRPRPRPGGLPRP | 0.00797
127 | RRIRVRPPRLPRPRPRPGHLPRP | -0.185
128 | RRIRVRPPRLPRPRPRPGHQPRP | -0.0671
129 | RRIRVRPPRLPRPRPRPGKHPRP | -0.391
130 | RRIRVRPPRLPRPRPRPGKPPRP | 0.0464
131 | RRIRVRPPRLPRPRPRPGKSPRP | -0.0236
132 | RRIRVRPPRLPRPRPRPGLAPRP | 0.166
133 | RRIRVRPPRLPRPRPRPGLSPRP | 0.32
134 | RRIRVRPPRLPRPRPRPGMDPRP | 0.225
135 | RRIRVRPPRLPRPRPRPGPDPRP | 0.465
136 | RRIRVRPPRLPRPRPRPGQCPRP | -0.0287
137 | RRIRVRPPRLPRPRPRPGQRPRP | 0.0272
138 | RRIRVRPPRLPRPRPRPGQSPRP | 0.0938
139 | RRIRVRPPRLPRPRPRPGSEPRP | 0.168
140 | RRIRVRPPRLPRPRPRPGSLPRP | -0.363
141 | RRIRVRPPRLPRPRPRPGTSPRP | -0.073
142 | RRIRVRPPRLPRPRPRPGVVPRP | 0.43
143 | RRIRVRPPRLPRPRPRPGWQPRP | 0.545
144 | RRIRVRPPRLPRPRPRPGYKPRP | -0.222
145 | RRIRVRPPRLPRPRPRPHAPPRP | 0.26
146 | RRIRVRPPRLPRPRPRPHAYPRP | -0.473
147 | RRIRVRPPRLPRPRPRPHCTPRP | -1.21
148 | RRIRVRPPRLPRPRPRPHFAPRP | 0.0941
149 | RRIRVRPPRLPRPRPRPHFHPRP | 3.23
150 | RRIRVRPPRLPRPRPRPHFKPRP | -0.0898

From the supplement of paper PMC9112550, “Optimization of the antimicrobial peptide Bac7 by deep mutational scanning” (BMC Biology, 2022)
